Measured values reported in patent US20090226466A1.

How the values were obtained:
[1] = biological target: human NKG2D on CHO transfectant cells (human) (UniProt P26718); test: flow cytometry on human NKG2D-CHO transfectant cells
[2] = biological target: full-length murine NKG2D on cells (murine) (UniProt O54709); test: cell-based or functional assay
[3] = biological target: soluble form of murine NKG2D representing residues 88-232, N'-FLAG tagged (murine) (UniProt O54709); test: ELISA, mNKG2D immobilized on plate, goat anti-mouse F(ab')2-HRP detection
[4] = biological target: full-length murine NKG2D on cells (murine) (UniProt O54709); test: flow cytometry on stable mNKG2D transfectant HEK293 cells
[5] = biological target: murine FcγRIII on cells (murine) (UniProt P08508); test: cell-based or functional assay
Chain of UniProt P08508 (P08508 31-261): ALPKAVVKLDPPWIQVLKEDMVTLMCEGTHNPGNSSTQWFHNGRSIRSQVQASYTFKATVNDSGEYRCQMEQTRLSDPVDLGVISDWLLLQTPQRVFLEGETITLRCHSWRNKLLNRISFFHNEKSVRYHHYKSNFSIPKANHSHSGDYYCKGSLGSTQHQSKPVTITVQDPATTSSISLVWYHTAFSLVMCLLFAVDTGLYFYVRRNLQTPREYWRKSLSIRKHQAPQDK

[6] = biological target: full-length murine NKG2D on cells (murine) (UniProt O54709); test: flow cytometry on stable mNKG2D transfectant HEK293 cells, isotype control
[7] = biological target: full-length murine NKG2D on cells (murine) (UniProt O54709); test: flow cytometry on NK cells from mouse splenocytes, biotinylated antibody and streptavidin

Chain of UniProt P26718 (P26718 whole entry): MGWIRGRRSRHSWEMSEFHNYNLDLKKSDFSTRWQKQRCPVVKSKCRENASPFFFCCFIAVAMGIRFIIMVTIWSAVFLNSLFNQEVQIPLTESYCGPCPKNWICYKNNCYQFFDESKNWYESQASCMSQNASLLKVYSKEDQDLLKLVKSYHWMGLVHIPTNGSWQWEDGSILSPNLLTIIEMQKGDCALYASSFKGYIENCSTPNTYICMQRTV

MFI [1]	EC50 [3]	MFI [4]	MFI [6]	MFI [7]	Substance	killing of BT474 cells by murine DX5+ NK cells (lactate dehydrogenase release), E:T ratio of 50:1, 6.7 nM antibody [2]	killing of BT474 cells by splenic NK cells of murine FcγRIII knockout mice, E:T ratio 20:1 [2]	killing of BT474 cells by murine DX5+ NK cells (lactate dehydrogenase release), E:T ratio of 50:1, 6.7 nM antibody [5]
61.7 MFI	0.3 nM	11 MFI			Anti-HER2*-MicB fusion antibody (D265A + N297A) (from UniProt Q29980 16-297)	15%		
61.7 MFI	0.3 nM	11 MFI			Anti-HER2-MicB fusion antibody (from UniProt Q29980 16-297)		10%	
					Anti-HER2 (4D5 mIgG2a) (antibody)			15%
			4 MFI		mouse IgG2a control antibody			
	0.2 nM	100 MFI		48.9 MFI	Anti-HER2-H60 fusion antibody		10%	
